{"source": "patent US20050064411", "proteins": {"B1": {"name": "NEDL-1 protein (protein)", "chain": "MASPSRNSQSRRRCKEPLRYSYNPDQFHNMDLRGGPHDGVTIPRSTSDTDLVTSDSRSTLMVSSSYYSIGHSQDLVIHWDIKEEVDAGDWIGMYLIDEVLSENFLDYKNRGVNGSHRGQIIWKIDASSYFVEPETKICFKYYHGVSGALRATTPSVTVKNSAAPIFKSIGADETVQGQGSRRLISFSLSDFQAMGLKKGMFFNPDPYLKISIQPGKHSIFPALPHHGQERRSKIIGNTVNPIWQAEQFSFVSLPTDVLEIEVKDKFAKSRPIIKRFLGKLSMPVQRLLERHAIGDRVVSYTLGRRLPTDHVSGQLQFRFEITSSIHPDDEEISLSTEPESAQIQDSPMNNLMESGSGEPRSEAPESSESWKPEQLGEGSVPDRPGNQSIELSRPAEEAAVITEAGDQGMVSVGPEGAGELLAQVQKDIQPAPSAEELAEQLDLGEEASALLLEDGEAPASTKEEPLEEEATTQSRAGREEEEKEQEEEGDVSTLEQGEGRLQLRASVKRKSRPCSLPVSELETVIASACGDPETPRTHYIRIHTLLHSMPSAQGGSAAEEEDGAEEESTLKDSSEKDGLSEVDTVAADPSALEEDREEPEGATPGTAHPGHSGGHFPSLANGAAQDGDTHPSTGSESDSSPRQGGDHSCEGCDASCCSPSCYSSSCYSTSCYSSSCYSASCYSPSCYNGNRFASHTRFSSVDSAKISESTVFSSQDDEEEENSAFESVPDSMQSPELDPESTNGAGPWQDELAAPSGHVERSPEGLESPVAGPSNRREGECPILHNSQPVSQLPSLRPEHHHYPTIDEPLPPNWEARIDSHGRVFYVDHVNRTTTWQRPTAAATPDGMRRSGSIQQMEQLNRRYQNIQRTIATERSEEDSGSQSCEQAPAGGGGGGGSDSEAESSQSSLDLRREGSLSPVNSQKITLLLQSPAVKFITNPEFFTVLHANYSAYRVFTSSTCLKHMILKVRRDARNFERYQHNRDLVNFINMFADTRLELPRGWEIKTDQQGKSFFVDHNSRATTFIDPRIPLQNGRLPNHLTHRQHLQRLRSYSAGEASEVSRNRGASLLARPGHSLVAAIRSQHQHESLPLAYNDKIVAFLRQPNIFEMLQERQPSLARNHTLREKIHYIRTEGNHGLEKLSCDADLVILLSLFEEEIMSYVPLQAAFHPGYSFSPRCSPCSSPQNSPGLQRASARAPSPYRRDFEAKLRNFYRKLEAKGFGQGPGKIKLIIRRDHLLEGTFNQVMAYSRKELQRNKLYVTFVGEEGLDYSGPSREFFFLLSQELFNPYYGLFEYSANDTYTVQISPMSAFVENHLEWFRFSGRILGLALIHQYLLDAFFTRPFYKALLRLPCDLSDLEYLDEEFHQSLQWMKDNNITDILDLTFTVNEEVFGQVTERELKSGGANTQVTEKNKKEYIERMVKWRVERGVVQQTEALVRGFYEVVDSRLVSVFDARELELVIAGTAEIDLNDWRNNTEYRGGYHDGHLVIRWFWAAVERFNNEQRLRLLQFVTGTSSVPYEGFAALRGSNGLRRFCIEKWGKITSLPRAHTCFNRLDLPPYPSYSMLYEKLLTAVEETSTFGLE"}}, "key": {"FLAG-AICD, P05067": {"target": "T1, FLAG-AICD, P05067", "T1 chain": "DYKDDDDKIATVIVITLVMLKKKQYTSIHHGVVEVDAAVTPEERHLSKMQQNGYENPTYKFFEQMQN"}}}
{"protein": "B1", "values": [{"measurement": "ubiquitination (bands increasing by about 9 kD detected with anti-ubiquitin antibody)", "setting": "FLAG-AICD, P05067", "value": "It is understood that ACID alone is subjected to ubiquitination by NEDL-1."}, {"measurement": "ubiquitination (immunoprecipitation with FLAG, blotting with anti-ubiquitin antibody, FIG. 13)", "setting": "SOD1 mutants", "value": "the degree of ubiquitination drastically increases in the presence of NEDL-1"}]}
